In patent US20190202907A1 (180 THERAPEUTICS, published 2019):

Experiments:
human ST2L = molecular target: T1, human ST2L (human, UniProt Q01638 19-328, limits assumed); experiment: affinity table; method not stated
T1 construct: also called IL-1R4; IL-33Ra
T1 sequence (looked up): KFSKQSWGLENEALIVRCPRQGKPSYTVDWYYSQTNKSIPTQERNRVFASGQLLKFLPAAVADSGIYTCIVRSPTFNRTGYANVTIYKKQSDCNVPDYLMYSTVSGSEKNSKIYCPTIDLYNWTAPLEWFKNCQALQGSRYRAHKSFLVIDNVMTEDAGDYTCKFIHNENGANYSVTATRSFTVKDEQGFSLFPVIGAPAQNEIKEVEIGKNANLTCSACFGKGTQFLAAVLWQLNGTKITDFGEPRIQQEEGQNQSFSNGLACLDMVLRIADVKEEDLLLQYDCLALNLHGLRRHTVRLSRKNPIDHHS

cyno ST2L (cyno) = experiment: affinity table; method not stated

B1: STLM226 (antibody, from another filing, V domains shown)
VH: EVQLVQSGAEVKKPGATVKISCKVSAFNIKDDYMHWVQQAPGKGLEWMGRIDPAIGNTEYAEKFQGRVTITADTSTDTAYMELSSLRSEDTAVYYCATGDFYAMAYWGQGTLVTVSS
VL: DIQMTQSPSSLSASVGDRVTITCITNTDIDDVIHWYQQKPGKAPKLLIYEGNTLRPGVPSRFSGSGSGTDFTLTISSLQPEDFATYYCLQSDNLLTFGQGTKLEIK
Which Kd (human ST2L) does the source give for B1 here?
Its Kd is 0.09 nM.

What about the koff (human ST2L) of the same binder?
Its koff is 0.00193 s⁻¹.

And the kon (human ST2L)?
The kon was 2.16e+07 M⁻¹ s⁻¹.

And the Kd (cyno ST2L (cyno))?
The Kd was 0.301 nM.

And the koff (cyno ST2L (cyno))?
Its koff is 0.0301 s⁻¹.

What about the kon (cyno ST2L (cyno)) of the same binder?
Its kon is 1e+08 M⁻¹ s⁻¹.

B2: STLM228 (antibody, from another filing, V domains shown)
VH: EVQLVQSGAEVKKPGATVKISCKVSAFNIKDDYMHWVQQAPGKGLEWMGRIDPAIGNTEYAEKFQGRVTITADTSTDTAYMELSSLRSEDTAVYYCATGDFYAMAYWGQGTLVTVSS
VL: DIQMTQSPSTLSASVGDRVTITCITNTDIDDVIHWYQQKPGKAPKLLIYEGNTLRPGVPSRFSGSGSGTEFTLTISSLQPDDFATYYCLQSDNMLTFGQGTKLEIK
What does the source list for B2?
Kd (human ST2L): 0.052 nM; koff (human ST2L): 0.00104 s⁻¹; kon (human ST2L): 2.01e+07 M⁻¹ s⁻¹; Kd (cyno ST2L (cyno)): 0.155 nM; koff (cyno ST2L (cyno)): 0.0155 s⁻¹; kon (cyno ST2L (cyno)): 1e+08 M⁻¹ s⁻¹

B3: STLM227 (antibody, from another filing, V domains shown)
VH: EVQLVQSGAEVKKPGATVKISCKVSAFNIKDDYMHWVQQAPGKGLEWMGRIDPAIGNTEYAEKFQGRVTITADTSTDTAYMELSSLRSEDTAVYYCATGDFYAMAYWGQGTLVTVSS
VL: DIQLTQSPSFLSASVGDRVTITCITNTDIDDVIHWYQQKPGKAPKLLIYEGNTLRPGVPSRFSGSGSGTEFTLTISSLQPEDFATYYCLQSDNMLTFGQGTKLEIK
For B3, which Kd (human ST2L) is on record?
Its Kd is 0.064 nM.

And the koff (human ST2L)?
The koff was 0.0017 s⁻¹.

And the kon (human ST2L)?
Its kon is 2.66e+07 M⁻¹ s⁻¹.

And the Kd (cyno ST2L (cyno))?
The Kd was 0.294 nM.

And the koff (cyno ST2L (cyno))?
Its koff is 0.0294 s⁻¹.

What about the kon (cyno ST2L (cyno)) of the same binder?
Its kon is 1e+08 M⁻¹ s⁻¹.

B4: STLM103 (antibody, from another filing, V domains shown)
VH: EVQLLESGGGLVQPGGSLRLSCAASGFTFSFYDMFWVRQAPGKGLEWVSSIRGEGGRTDYADSVKGRFTISRDNSKNTLYLQMNSLRAEDTAVYYCARDPWSTEGSFFVLDYWGQGTLVTVSS
VL: EIVLTQSPATLSLSPGERATLSCRASQSVDDDLAWYQQKPGQAPRLLIYDASNRATGIPARFSGSGSGTDFTLTISSLEPEDFAVYYCQQYIGAPITFGQGTKVEIK
For B4, which Kd (human ST2L) is on record?
Its Kd is 0.041 nM.

What about the koff (human ST2L) of the same binder?
Its koff is 0.000163 s⁻¹.

And the kon (human ST2L)?
Its kon is 3.97e+06 M⁻¹ s⁻¹.

And the Kd (cyno ST2L (cyno))?
Its Kd is 0.031 nM.

And the koff (cyno ST2L (cyno))?
The koff was 0.000202 s⁻¹.

And the kon (cyno ST2L (cyno))?
Its kon is 6.42e+06 M⁻¹ s⁻¹.

B5: STLM217 (antibody, from another filing, V domains shown)
VH: EVQLLESGGGLVQPGGSLRLSCAASGFTFSVYDMFWVRQAPGKGLEWVSDIKGEGGETSYADSVKGRFTISRDNSKNTLYLQMNSLRAEDTAVYYCARDPWSTEGSFFVLDYWGQGTLVTVSS
VL: EIVLTQSPATLSLSPGERATLSCRASQSVDDDLAWYQQKPGQAPRLLIYDASNRATGIPARFSGSGSGTDFTLTISSLEPEDFAVYYCQQYIGAPITFGQGTKVEIK
Which results are given for B5?
Kd (human ST2L): 0.017 nM; koff (human ST2L): 0.000126 s⁻¹; kon (human ST2L): 7.27e+06 M⁻¹ s⁻¹; Kd (cyno ST2L (cyno)): 0.004 nM; koff (cyno ST2L (cyno)): 0.000138 s⁻¹; kon (cyno ST2L (cyno)): 3.81e+07 M⁻¹ s⁻¹

B6: STLM219 (antibody, from another filing, V domains shown)
VH: EVQLLESGGGLVQPGGSLRLSCAASGFTFSGYDMFWVRQAPGKGLEWVSDIGGEGGSTNYADSVKGRFTISRDNSKNTLYLQMNSLRAEDTAVYYCARDPWSTEGSFFVLDYWGQGTLVTVSS
VL: EIVLTQSPATLSLSPGERATLSCRASQSVDDDLAWYQQKPGQAPRLLIYDASNRATGIPARFSGSGSGTDFTLTISSLEPEDFAVYYCQQYIGAPITFGQGTKVEIK
Which Kd (human ST2L) does the source give for B6 here?
The Kd was 0.027 nM.

And the koff (human ST2L)?
The koff was 0.000201 s⁻¹.

What about the kon (human ST2L) of the same binder?
The kon was 7.54e+06 M⁻¹ s⁻¹.

And the Kd (cyno ST2L (cyno))?
Its Kd is 0.022 nM.

And the koff (cyno ST2L (cyno))?
Its koff is 0.00023 s⁻¹.

What about the kon (cyno ST2L (cyno)) of the same binder?
Its kon is 1.07e+07 M⁻¹ s⁻¹.

B7: STLM221 (antibody, from another filing, V domains shown)
VH: EVQLLESGGGLVQPGGSLRLSCAASGFTFSIYDMFWVRQAPGKGLEWVSYIRGEGGDTNYADSVKGRFTISRDNSKNTLYLQMNSLRAEDTAVYYCARDPWSTEGSFFVLDYWGQGTLVTVSS
VL: EIVLTQSPATLSLSPGERATLSCRASQSVDDDLAWYQQKPGQAPRLLIYDASNRATGIPARFSGSGSGTDFTLTISSLEPEDFAVYYCQQYIGAPITFGQGTKVEIK
B7 was tested. Which Kd (human ST2L) did it give?
The Kd was 0.035 nM.

What about the koff (human ST2L) of the same binder?
Its koff is 9.61e-05 s⁻¹.

And the kon (human ST2L)?
Its kon is 2.73e+06 M⁻¹ s⁻¹.

And the Kd (cyno ST2L (cyno))?
The Kd was 0.022 nM.

And the koff (cyno ST2L (cyno))?
Its koff is 0.00013 s⁻¹.

And the kon (cyno ST2L (cyno))?
The kon was 6.04e+06 M⁻¹ s⁻¹.

B8: STLM220 (antibody, from another filing, V domains shown)
VH: EVQLLESGGGLVQPGGSLRLSCAASGFTFSFYDMFWVRQAPGKGLEWVSDIRGEGGGTAYADSVKGRFTISRDNSKNTLYLQMNSLRAEDTAVYYCARDPWSTEGSFFVLDYWGQGTLVTVSS
VL: EIVLTQSPATLSLSPGERATLSCRASQSVDDDLAWYQQKPGQAPRLLIYDASNRATGIPARFSGSGSGTDFTLTISSLEPEDFAVYYCQQYIGAPITFGQGTKVEIK
What does the source list for B8?
Kd (human ST2L): 0.016 nM; koff (human ST2L): 9.53e-05 s⁻¹; kon (human ST2L): 5.8e+06 M⁻¹ s⁻¹; Kd (cyno ST2L (cyno)): 0.009 nM; koff (cyno ST2L (cyno)): 0.00014 s⁻¹; kon (cyno ST2L (cyno)): 1.6e+07 M⁻¹ s⁻¹

B9: STLM107 (antibody, from another filing, V domains shown)
VH: EVQLLESGGGLVQPGGSLRLSCAASGFTFSDYAMFWVRQAPGKGLEWVSAIEGEGGETNYADSVKGRFTISRDNSKNTLYLQMNSLRAEDTAVYYCARDPWSTEGSFFVLDYWGQGTLVTVSS
VL: EIVLTQSPATLSLSPGERATLSCRASQSVDDDLAWYQQKPGQAPRLLIYDASNRATGIPARFSGSGSGTDFTLTISSLEPEDFAVYYCQQYIGAPITFGQGTKVEIK
What does the source list for B9?
Kd (human ST2L): 0.012 nM; koff (human ST2L): 0.000341 s⁻¹; kon (human ST2L): 2.9e+07 M⁻¹ s⁻¹; Kd (cyno ST2L (cyno)): 0.007 nM; koff (cyno ST2L (cyno)): 0.00055 s⁻¹; kon (cyno ST2L (cyno)): 1e+08 M⁻¹ s⁻¹

B10: STLM108 (antibody, from another filing, V domains shown)
VH: EVQLLESGGGLVQPGGSLRLSCAASGFTFSIYDMIWVRQAPGKGLEWVSTIKGEGGGTYYADSVKGRFTISRDNSKNTLYLQMNSLRAEDTAVYYCARDPWSTEGSFFVLDYWGQGTLVTVSS
VL: EIVLTQSPATLSLSPGERATLSCRASQSVDDDLAWYQQKPGQAPRLLIYDASNRATGIPARFSGSGSGTDFTLTISSLEPEDFAVYYCQQYIGAPITFGQGTKVEIK
How did the Kd (human ST2L) turn out when B10 was run?
Its Kd is 0.097 nM.

What about the koff (human ST2L) of the same binder?
Its koff is 0.000222 s⁻¹.

And the kon (human ST2L)?
The kon was 2.29e+06 M⁻¹ s⁻¹.

What about the Kd (cyno ST2L (cyno)) of the same binder?
The Kd was 0.029 nM.

What about the koff (cyno ST2L (cyno)) of the same binder?
The koff was 0.000598 s⁻¹.

What about the kon (cyno ST2L (cyno)) of the same binder?
The kon was 2.05e+07 M⁻¹ s⁻¹.

B11: STLM218 (antibody, from another filing, V domains shown)
VH: EVQLLESGGGLVQPGGSLRLSCAASGFTFSVDSMFWVRQAPGKGLEWVSSIEGNGGATYYADSVKGRFTISRDNSKNTLYLQMNSLRAEDTAVYYCARDPWSTEGSFFVLDYWGQGTLVTVSS
VL: EIVLTQSPATLSLSPGERATLSCRASQSVDDDLAWYQQKPGQAPRLLIYDASNRATGIPARFSGSGSGTDFTLTISSLEPEDFAVYYCQQYIGAPITFGQGTKVEIK
B11 was tested. Which Kd (human ST2L) did it give?
The Kd was 0.023 nM.

What about the koff (human ST2L) of the same binder?
Its koff is 0.000224 s⁻¹.

And the kon (human ST2L)?
The kon was 9.89e+06 M⁻¹ s⁻¹.

And the Kd (cyno ST2L (cyno))?
The Kd was 0.018 nM.

What about the koff (cyno ST2L (cyno)) of the same binder?
The koff was 0.000265 s⁻¹.

What about the kon (cyno ST2L (cyno)) of the same binder?
Its kon is 1.45e+07 M⁻¹ s⁻¹.

B12: STLM222 (antibody, from another filing, V domains shown)
VH: EVQLLESGGGLVQPGGSLRLSCAASGFTFSIYSMFWVRQAPGKGLEWVSDIGGEGGGTSYADSVKGRFTISRDNSKNTLYLQMNSLRAEDTAVYYCARDPWSTEGSFFVLDYWGQGTLVTVSS
VL: EIVLTQSPATLSLSPGERATLSCRASQSVDDDLAWYQQKPGQAPRLLIYDASNRATGIPARFSGSGSGTDFTLTISSLEPEDFAVYYCQQYIGAPITFGQGTKVEIK
B12 was tested. Which Kd (human ST2L) did it give?
The Kd was 0.037 nM.

And the koff (human ST2L)?
Its koff is 0.000301 s⁻¹.

What about the kon (human ST2L) of the same binder?
The kon was 8.22e+06 M⁻¹ s⁻¹.

What about the Kd (cyno ST2L (cyno)) of the same binder?
Its Kd is 0.029 nM.

And the koff (cyno ST2L (cyno))?
Its koff is 0.000345 s⁻¹.

And the kon (cyno ST2L (cyno))?
The kon was 1.18e+07 M⁻¹ s⁻¹.
